Laboratory results from patent US20110206615A1.

Target: mKO2-Nrf2 fusion molecule (mKO2 fused to amino acids 1-100 of human Nrf2, released from the probe reagent mKO2-Nrf2-100-T2A-Keap1 by self-cleavage at T2A) (human) (UniProt Q16236)
Test: cell-based or functional assay

Sequence of UniProt Q16236 (Q16236 other isoform, or with tags, fused parts or gaps): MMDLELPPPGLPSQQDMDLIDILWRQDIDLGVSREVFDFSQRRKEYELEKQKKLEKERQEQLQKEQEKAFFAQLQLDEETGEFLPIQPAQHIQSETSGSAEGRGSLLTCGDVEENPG

- fluorescent intensity of mKO2 in HeLa cells after addition of DEM (oxidative stress inducer) at 100 µM: 10 times
Substance: human Keap1 (regulatory factor, released from mKO2-Nrf2-100-T2A-Keap1 by self-cleavage at T2A) (from UniProt Q14145 1-624)
